For test [1], the target named is Down-regulated Hck kinase (containing an N-terminal His6 tag). The test is described as follows: cell-based or functional assay.
For test [2], the target named is human Lyn (residues 62-122) SH3 domain-GST fusion protein (human), P07948. As to the kind of experiment: fluorescence polarization, 50 nM labeled peptide, SH3-GST titrated. Background: In fluorescence polarisation assays a small probe gives low polarisation when free and higher when bound to something large.
Test [3] addresses human Fyn (residues 81-142) SH3 domain-GST fusion protein (human), P06241. The description is as above.
The target of test [4] is T1, human Lck (residues 62-128) SH3 domain-GST fusion (human), P06239.
T1 chain: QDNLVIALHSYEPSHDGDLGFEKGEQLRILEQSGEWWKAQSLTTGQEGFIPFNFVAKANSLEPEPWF
The description is as above.

Sequence of human Lyn (residues 62-122) SH3 domain-GST fusion protein (human), P07948 (P07948 62-122): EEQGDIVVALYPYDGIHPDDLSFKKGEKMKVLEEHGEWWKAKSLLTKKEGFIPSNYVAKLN
Sequence of human Fyn (residues 81-142) SH3 domain-GST fusion protein (human), P06241 (P06241 81-142): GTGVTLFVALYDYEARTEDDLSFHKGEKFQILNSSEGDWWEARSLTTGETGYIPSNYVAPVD

B1: PP2 (designed binder)
chain: APPLPPRNRGDDAPVEDLIRFYDNLQQYLNVVTRHRY
Consider B1, for which, in test [1], the Activity (nmol · sec^-1), activator at 50 micromolar (nmol · sec^-1) was 139; the Fold-Activation, activator at 50 micromolar came to 13 fold; the Kact (concentration of activator at half-maximal activation) was found to be 48 µM.

B2: PP1 (designed binder)
chain: APPLPPRNPGDDAPVEDLIRFYDNLQQYLNVVTRHRY
As to B2, in test [1], the Activity (nmol · sec^-1), activator at 50 micromolar (nmol · sec^-1) was determined as 83.6 and the Fold-Activation, activator at 50 micromolar amounted to 8 fold.

B3: PP3 (designed binder)
chain: APPLPPRNRPRDAPVEDLIRFYDNLQQYLNVVTRHRY
In the case of B3, in test [1], the Activity (nmol · sec^-1), activator at 50 micromolar (nmol · sec^-1) was 83.9; the Fold-Activation, activator at 50 micromolar is 7 fold; the Kact (concentration of activator at half-maximal activation) was found to be 48 µM.

B4: ^Flu1, fluorescently labeled analog of Peptide 1 (peptide)
peptide: CGGAPPLPPRNRPR
modifications: not checked
Regarding B4, the dissociation constant (Kd) in test [2] is 2 µM; in test [3] it was 1.4 µM; in test [4] it was > 20 µM.

A word on the Kd: it is the constant that tells how readily two partners part at equilibrium.
